pKd: −log10 of the molar value.

The source of these data is PMC7997048.

One assay concerns the target ephrin-B2 (Homo sapiens) (UniProt P52799). Conditions: cited from earlier work.
Assay [1] deals with ephrin-B2-Fc (extracellular region of murine ephrin-B2, Fc fusion) (murine) (UniProt P52800). Briefly: SEC; Superdex 200 FPLC of the EphB6-ECD/ephrin-B2 complex, micromolar concentration range. (In gel filtration, larger molecules generally elute earlier.)
The target is the same in assay [2]. Briefly: BLI; BLItz instrument; Protein-A biosensor loaded with 50 ug/ml purified Fc-tagged ephrin-B2, washed with HBS; EphB6-ECD at 100 nM and 1 uM, association and dissociation 3 min each; apparent Kd. In general terms: BLI is a label-free optical method that tracks binding on a fibre tip over time.

UniProt P52799, sequence (P52799 28-229): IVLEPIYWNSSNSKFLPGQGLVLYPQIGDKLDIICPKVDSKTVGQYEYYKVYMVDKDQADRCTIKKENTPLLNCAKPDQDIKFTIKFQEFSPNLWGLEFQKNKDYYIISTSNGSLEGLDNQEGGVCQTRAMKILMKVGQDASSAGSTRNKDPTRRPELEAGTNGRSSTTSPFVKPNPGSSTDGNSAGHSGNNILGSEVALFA

Turning to EphB2 (from UniProt P29323), the pKd with ephrin-B2 (Homo sapiens) is 8.07. For the substance “EphB6 receptor ectodomain (EphB6-ECD) (from UniProt O15197 32-594) (domain or fragment)”, in assay [1], the stoichiometry N was 1. Also, in assay [2], the pKd is 7.05.

For orientation: pKd means the Kd on a negative log10 scale, so that one unit is a factor of ten. In general, stoichiometry N refers to a count of units in the complex or per binding partner.
